Measured values taken from patent US5162210A, “Process for enzymatic hydrolysis of starch to glucose” (Iowa State University Research Foundation, priority 1990, dated 1992).
Residue numbers refer to the chain shown, from its start. Names and notes keep the numbering of the source.

B1: Aspergillus awamori glucoamylase, wild type (unmutated, expressed in Saccharomyces cerevisiae) (Aspergillus awamori) (protein)
chain: ATLDSWLSNEATVARTAILNNIGADGAWVSGADSGIVVASPSTDNPDYFYTWTRDSGLVLKTLVDLFRNGDTSLLSTIENYISAQAIVQGISNPSGDLSSGAGLGEPKFNVDETAYTGSWGRPQRDGPALRATAMIGFGQWLLDNGYTSTATDIVWPLVRNDLSYVAQYWNQTGYDLWEEVNGSSFFTIAVQHRALVEGSAFATAVGSSCSWCDSQAPEILCYLQSFWTGSFILANFDSSRSGKDANTLLGSIHTFDPEAACDDSTFQPCSPRALANHKEVVDSFRSIYTLNDGLSDSEAVAVGRYPEDTYYNGNPWFLCTLAAAEQLYDALYQWDKQGSLEVTDVSLDFFKALYSDAATGTYSSSSSTYSSIVDAVKTFADGFVSIVETHAASNGSMSEQYDKSDGEQLSARDLTWSYAALLTANNRRNSVVPASWGETSASSVPGTCAATSAIGTYSSVTVTSWPSIVATGGTTTTATPTGSGSVTSTSKTTATASKTSTSTSSTSCTTPTAVAVTFDLTATTTYGENIYLVGSISQLGDWETSDGIALSADKYTSSDPLWYVTVTLPAGESFEYKFIRIESDDSVEWESDPNREYTVPQACGTSTATVTDTWR
B2: Aspergillus awamori glucoamylase variant Ser184→His (Ser→His184, S→H184) (Aspergillus awamori; S208H) (protein)
chain: B1 chain with S184H
B3: Aspergillus awamori glucoamylase variant Leu177→His (Aspergillus awamori; L201H) (protein)
chain: B1 chain with L177H
B4: Aspergillus awamori glucoamylase variant Ser119→Tyr (Ser→Tyr119, S→Y119) (Aspergillus awamori; S143Y) (protein)
chain: B1 chain with S119Y
B5: Aspergillus awamori glucoamylase variant Trp178→Arg (Aspergillus awamori; W202R) (protein)
chain: B1 chain with W178R
B6: Aspergillus awamori glucoamylase variant Gly183→Lys (Gly→Lys183, G→K183) (Aspergillus awamori; G207K) (protein)
chain: B1 chain with G183K
B7: Aspergillus awamori glucoamylase variant Asn182→Ala (Aspergillus awamori; N206A) (protein)
chain: B1 chain with N182A

How the values were obtained:
Assay in all cases: purified protein, by the assay type
[1] = substrate: OC[C@H]1O[C@H](O[C@H]2[C@H](O)[C@@H](O)[C@@H](O[C@H]3[C@H](O)[C@@H](O)[C@@H](O[C@H]4[C@H](O)[C@@H](O)[C@@H](O[C@H]5[C@H](O)[C@@H](O)[C@@H](O[C@H]6[C@H](O)[C@@H](O)[C@@H](O[C@H]7[C@H](O)[C@@H](O)C(O)O[C@@H]7CO)O[C@@H]6CO)O[C@@H]5CO)O[C@@H]4CO)O[C@@H]3CO)O[C@@H]2CO)[C@H](O)[C@@H](O)[C@@H]1O
[2] = substrate: OC[C@H]1O[C@H](O[C@H]2[C@H](O)[C@@H](O)[C@H](O)O[C@@H]2CO)[C@H](O)[C@@H](O)[C@@H]1O
[3] = substrate: OC[C@H]1O[C@H](OC[C@H]2OC(O)[C@H](O)[C@@H](O)[C@@H]2O)[C@H](O)[C@@H](O)[C@@H]1O
[4] = other: 45 C., pH 4.5, 0.05M sodium acetate buffer, pH 4.5, 45.0 °C
[5] = other: pH 4.4 and 50° C., pH 4.4, 50.0 °C
[6] = other: 45 C., pH 4.5, 0.05M sodium acetate buffer

Protein	Km [1, 6]	Km [2, 6]	Km [3, 6]	Km ([1]; other: pH 4.4 and 50° C.)	kcat ([1]; other: pH 4.4 and 50° C.)	kcat/Km ([1]; other: pH 4.4 and 50° C.)	Km ([2]; other: pH 4.4 and 50° C.)	kcat ([2]; other: pH 4.4 and 50° C.)	kcat/Km ([2]; other: pH 4.4 and 50° C.)	Km ([3]; other: pH 4.4 and 50° C.)	kcat ([3]; other: pH 4.4 and 50° C.)	kcat/Km ([3]; other: pH 4.4 and 50° C.)	other results
B1													Km [1, 4]: 140 µM; kcat [1, 4]: 66.2 s⁻¹; Km [1, 5]: 220 µM; kcat [1, 5]: 84 ± 2 s⁻¹; kcat/Km [1, 5]: 390000 M⁻¹ s⁻¹; Km [2, 4]: 1400 µM; kcat [2, 4]: 9.1 s⁻¹; Km [2, 5]: 1730 µM; kcat [2, 5]: 14.4 ± 0.5 s⁻¹; kcat/Km [2, 5]: 8300 M⁻¹ s⁻¹; Km [3, 4]: 30300 µM; kcat [3, 4]: 0.34 s⁻¹; Km [3, 5]: 36000 µM; kcat [3, 5]: 0.487 ± 0.031 s⁻¹; kcat/Km [3, 5]: 13.5 M⁻¹ s⁻¹
B2	140 µM	900 µM	26700 µM										
B3				300 µM	15.9 ± 0.8 s⁻¹	53000 M⁻¹ s⁻¹	5300 µM	2.6 ± 0.1 s⁻¹	490 M⁻¹ s⁻¹	49700 µM	0.0438 ± 0.0018 s⁻¹	0.881 M⁻¹ s⁻¹	
B4	200 µM	1100 µM	66200 µM										
B5				260 µM	16.6 ± 0.4 s⁻¹	63000 M⁻¹ s⁻¹	1520 µM	1.86 ± 0.11 s⁻¹	1220 M⁻¹ s⁻¹	73100 µM	0.0728 ± 0.0027 s⁻¹	0.997 M⁻¹ s⁻¹	
B6	140 µM	1100 µM	39000 µM										
B7				260 µM	65 ± 4 s⁻¹	250000 M⁻¹ s⁻¹	1380 µM	11.6 ± 0.3 s⁻¹	8400 M⁻¹ s⁻¹	64300 µM	0.397 ± 0.019 s⁻¹	6.18 M⁻¹ s⁻¹	
